# Assay: yeast display, Sf9 membrane polyspecificity reagent, FACS + sequencing; frameworks hold sequencing errors
# Outline: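 After 36–48 hours of galactose induction, yeast (Saccharomyces cerevisiae BJ5465) displaying a synthetic nanobody library were stained at 4 °C for 1 hour with 10% biotinylated, detergent-solubilized Sf9 membrane reagent. Streptavidin microbeads enriched the stained cells before FACS sorting into low and high (top ~1%) gates on anti-HA and streptavidin fluorescence. Each clone's polyreactivity label reflects its gate of origin.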
row,Sequence,polyreactivity (PSR sort gate)
1,QVQLVESGGGLVQAGGSLRLSCAASGLIFGFYAMGWYRQAPGKEWELVAAINSGGITYYADSVKGRFTISRDNAKNTVYLQMNSLKPEDTSVYYCAAVHSRRARYDYWGQGTQVTVSS,low polyreactivity
2,QVQLVESGGGLVQAGGSLRLSCAASGLIFGGNAMGWYRQAPGKERELVAAISRSTGRTYYADSVKGRFTISRDNEKNTVYLQMNSLKPEDTAVYYCNAVGYAFPSYDSWGQGTQVTVSS,high polyreactivity
3,QVQLVESGGGLVQAGGSLRLSCAASGLIFGGNAMGWYRQAPGKERELVAAISRSTGRTYYADSVKGRFTISRDTAKNTVYLQMNSLKPEDTAVYYCNAVGYAFPSYDSWGQGTQVTVSS,high polyreactivity
4,QVQLVESGGGLVQAGGSLRLSCAASGLIFGLYSMGWYRQAPGKERELVAAISYRTDSTYADSVKGRFTISRDNAKNTVYLQMNSLKPEDTAVYYCAADLRVSVRYYYWGQGTQVTVSW,low polyreactivity
5,QVQLVESGGGLVQAGGSLRLSCAASGLIFGPYAMGWYRQAPGKERELVAAISARGGSTRYADSVKGRFTISRDNAKNTVYLQMNSLKPEDTAVYYCAASTWYGYDYWGQGTQVTVSS,high polyreactivity
6,QVQLVESGGGLVQAGGSLRLSCAASGLIFGRNAMGWYRQAPGKERELVAAINNSGGTTYYADSVKGRFTISRDNAKNTVYLQMNSLKPEDTAVYYCNAYFRNWRYSPGGYWGQGTQVTVSS,high polyreactivity
7,QVQLVESGGGLVQAGGSLRLSCAASGLIFGSNAMGWYRQAPGKERELVAAISSGGTTKYADSVKGRFTISRDNAKNTVYLQMNSLKPEDTAVYYCAAQDYSYTTRFQDDYWGQGTQVTVSS,low polyreactivity
8,QVQLVESGGGLVQAGGSLRLSCAASGLIFGTYAMGWYREARGIERELVAAITSGGRTYYADSVKGRFTISRDNAKNTVYLQLNSLKPEATAVYYCAAVLSQWGAVFLYVLSTGLDYWGQGTQVTVSS,low polyreactivity
9,QVQLVESGGGLVQAGGSLRLSCAASGLIFGWYAMGWYRPEPGKEREFVASIRYGGGSTYYADSVKGRFTISRDNAKNTVYLQMNSLKPEDTAVYYCAADRYPWHLQYVEYDSDYWGQGTQVTVSS,low polyreactivity
10,QVQLVESGGGLVQAGGSLRLSCAASGLIFGYYAMGWYRQAPGKEREFVAAISGTGGSTYYADSVKGRFTISRDNAKNTVYLQMNSLKPEDTAVYYCAARQGWWRFYAYDYWGQCTQVTVSS,high polyreactivity
11,QVQLVESGGGLVQAGGSLRLSCAASGLIFGYYAMGWYRQAPGKERELVAAITSSGASTYYADSVKGRFTISRDNAKNSVYLQMNSLKPEDTAVYYCNKYRYRSLGYDYWGQGTQVTVSS,high polyreactivity
12,QVQLVESGGGLVQAGGSLRLSCAASGLIFGYYAMGWYRQAPGKERELVAVISYSGGSTYYADSVKGRFTITRDNAKNTVYLQMNSLNPEDTAVYYCNTYGAYYRHTKEYGYWGQGTQVTVSS,high polyreactivity
13,QVQLVESGGGLVQAGGSLRLSCAASGLIFHRNAMGWYRQAPGKERELVAAITKTGGGTYYADSVKGRFTISLDNAKNTVYLQMNSLKPEDTAVYYCAADTQRTFYYWGQGTQVTVSS,low polyreactivity
14,QVQLVESGGGLVQAGGSLRLSCAASGLIFKRYAMGWYRQAPGKERELVAAISSGTRTYYADSVKGRFTISRDNAKNTVYLQMNSLKPEDTAVYYCAARLDYWGQGTQVTVSS,high polyreactivity
15,QVQLVESGGGLVQAGGSLRLSCAASGLIFKYYAMGWYRQAPGKERELVAAITGRGGSTYYADSVKGRFTISRDNAKNTVYLQMNSLKPEDTAVYYCARRRTYSFNPVTYDWGQGTQVTVSS,high polyreactivity
16,QVQLVESGGGLVQAGGSLRLSCAASGLIFLRNAMGWYRQAPGKERELVAAISRSGGSTYYADSVKGRFTISRDYAKNTVYLQMNSLKPDDTAVYYCAKYGYGGVIPGPDHYDYWGQGTQVTVSS,high polyreactivity
17,QVQLVESGGGLVQAGGSLRLSCAASGLIFNLYAMGWYRQAPGKEREFVATITGIGGSTYYADSVKGRFTISRDIAKNTVYLQMNSLKPDDTAVYYCAADAWFVPYNYWGQGTQVTVSS,low polyreactivity
18,QVQLVESGGGLVQAGGSLRLSCAASGLIFNLYAMGWYRQAPGKEREFVATITGIGGSTYYADSVKGRFTISRDNAKNTVYLQMNSLKPEDTAVYYCAADAWFLPYNDWGQGTQVTVSS,low polyreactivity
19,QVQLVESGGGLVQAGGSLRLSCAASGLIFNRYVMGWYRQARGKERELVAAITCSGDSTYYADSVKGRFTISRDNAKNTVYLQMNSLKPVDTAVYYCAAWDYRYTDREGDYWGPGTQVTVSS,high polyreactivity
20,QVQLVESGGGLVQAGGSLRLSCAASGLIFNTYAMGWYRQAPGKDRELVAAITDGGGTNYADSVKGRFTISRDNAKNTVYLQMNSLKPEDTAVYYCAARLASWPLTYDFQWYEYWGQGTQVTVSS,low polyreactivity
21,QVQLVESGGGLVQAGGSLRLSCAASGLIFNYYAMGWYRPAPGKERELVAAIYNGGSTYADSVKGRFTISRDNAKNTVYLQMNSLKPEDTAVYYCNTDDPDRDNDVKSIDYDYWGQGTQVTVSS,low polyreactivity
22,QVQLVESGGGLVQAGGSLRLSCAASGLIFNYYAMGWYRQAPGKEREFVAAISGRGGNTYYADSVKVRFTISRDNAKTTVYLQINSLKPEDTAVYYCAARRYYSNREYDYWGQGTQVTVSS,high polyreactivity

row,Sequence,polyreactivity (PSR sort gate)
1,QVQLVESGGGLVQAGGSLRLSCAASGLIFPAYAMGWYRQAPGKERELVAAISYSGGRTYYADSVKGRVTISRDNAKNTVYLQMNSLKPEDTAVYYCNTGYWYVSLGSYDYYGEYDYWGQGTQVTVSS,high polyreactivity
2,QVQLVESGGGLVQAGGSLRLSCAASGLIFPGYAMGWYRQAPGKERELVAAISWSGGTTYYADSVKGRFTISRDNAKNTVYLQMNSLKPEDTAVYYCNAVYLQGYDYWGQGTQVTVSS,low polyreactivity
3,QVQLVESGGGLVQAGGSLRLSCAASGLIFPPNAMGWYRQAPGKERELVASITRSGVSTNYADSVKGRFTISRDNAKNTVYLQMNSLKPEDTAVYYCAAVIYSTYTIPNDEMGYWGHGTQVTVSS,low polyreactivity
4,QVQLVESGGGLVQAGGSLRLSCAASGLIFPRYAMGWYRQAPGKERELVAAITRGGSTYYADSVKGRFTISRDNAKNTVYLQMNSLKPEATAVYDCNAELPVHCSWYDYWGQGTQVTVSS,low polyreactivity
5,QVQLVESGGGLVQAGGSLRLSCAASGLIFPRYAMGWYRQAPGKERELVAAITRGGSTYYADSVKGRFTISRDNAKNTVYLQMNSLNPEDTAVYYCTAELPVHWSWYDYWGQGPQVTVSS,low polyreactivity
6,QVQLVESGGGLVQAGGSLRLSCAASGLIFPRYAMGWYRQAPGKVSELVAAITWSGGSTFYADSVKGRFTISRDTAKNTVYLQMNSLKPEDTAVYYCAAQDASERTYGYDGYYYWGQGTQVTVSS,low polyreactivity
7,QVQLVESGGGLVQAGGSLRLSCAASGLIFPRYGMGWYRQAPGKERELVAAISRSGGNTYYADSVKGRFTISRDNAKNTVYLQMNSLKPEDTAVYYCAAYFSTAPKSQYKLDYRGQGTQVTVSS,high polyreactivity
8,QVQLVESGGGLVQAGGSLRLSCAASGLIFPRYTMGWYRQAPGKERELVAAIRGTGGSTYYADSVKGRFTISRDNPKNTVYLQLNSLKPEDTAVYYCATRGKSHGQQFNYWGQGTQVTVSS,high polyreactivity
9,QVQLVESGGGLVQAGGSLRLSCAASGLIFPVYAMGWYRQAPGKEREFVASIWRGGTTYYADSVKGRFTISRDNAKNTVYLQMNSLKPEDTAVYYCAARYYPRGLVFPFTKYDYWGQGTQVTVSS,high polyreactivity
10,QVQLVESGGGLVQAGGSLRLSCAASGLIFPYYTMGWYRQAPGKERELVAAISWRGGGTFYADSVKGRFTISRDNAKNTVYLQMNSLNPEDTAVYYCAAQLYPYRWYYWGQGTQVTVSS,high polyreactivity
11,QVQLVESGGGLVQAGGSLRLSCAASGLIFQSYAMGWYRQAPGKERELVAVITWSGTSTYADSVKGRFTISRVNAKNTVYLQMNSLKPEDTAVYYCAASKYGSFTNFGYWGQGTQVTVSS,low polyreactivity
12,QVQLVESGGGLVQAGGSLRLSCAASGLIFQYYAMGWSRQAPGKERELVASISWSGSSTYYADSVKGRFTISRDNAKNTVYLQMISLKPEDTAVYYCAAGWGRGWYDYWGQGTQVTVSS,high polyreactivity
13,QVQLVESGGGLVQAGGSLRLSCAASGLIFRAYAMGWYRQAPGKERELVAAISRRGGSTYYADSVKGRFTISRDNANNTVYLQMNSLKPEDSAVYYCNKDSRSWPFKYDYWGQGTQVTVSS,high polyreactivity
14,QVQLVESGGGLVQAGGSLRLSCAASGLIFRPYAMGWSRQAPGKERELVAAITSGGSTDYADSVKGRFTISRDNAKNTVYLQMNSLKPEDTAVYYCNADIYPHDGYPWQGDYDYWGQGTQVTVSS,low polyreactivity
15,QVQLVESGGGLVQAGGSLRLSCAASGLIFRPYAMGWYRQAPGKERELVAAITSGGSTDYADSVKGRFTISRDNAKNTVYLQMNSLKPQDTAVYYCNADTIPDGEDRYVYWGQGTQVTVSS,low polyreactivity
16,QVQLVESGGGLVQAGGSLRLSCAASGLIFRPYTMGWYRPAPGKERELVATISGSGASTNYADSVKGRFTISRDNAKNTVYLQMNSLKPEDTAVYYCKGRSYSRMYYWGQGTQVTVSS,high polyreactivity
17,QVQLVESGGGLVQAGGSLRLSCAASGLIFRRYVLGWYRQAPGKEWELVAAISATGSRTYYADSVKGRFTISRDNAKNTVYLQRNSLKPEDNAVYYCAAYRGPRIYRYDYWGQVTQVTVSS,high polyreactivity
18,QVQLVESGGGLVQAGGSLRLSCAASGLIFRTYAMGWYRQAPGKERELVAAISSSGGSTYYADSVKGRFTISRDNAKNTVYLQMNSLKPEDTAVYYCNVGSRRRRYLDRYEYWGQGTQVTVSS,high polyreactivity
19,QVQLVESGGGLVQAGGSLRLSCAASGLIFRTYTMGWNRQAPGKERELVAVISTSGGTTYYADSVKGRFTISRDNAKNTVYLQMNSLKPEDTAVYYCAKRYYWKYAEYDYWGQGSQVTVSS,high polyreactivity
20,QVQLVESGGGLVQAGGSLRLSCAASGLIFRWYAMGWYRQAPGKEREMVAAISRRGGTTNYADSVKGRFTISRDNAKNTVYLQMTSLKPEDTAVYYCAADYQSVGGAEYDYWGQGTQVTVSS,high polyreactivity
21,QVQLVESGGGLVQAGGSLRLSCAASGLIFRWYAMGWYRQAPGKEWELVAAISRRGGTTNYADSVKGRFTISRDNAKKTVYLQMNSLKPEDTAVYYCAADYQSVGGAEYDYWGQGTQVTVSS,high polyreactivity
